# Laboratory results reported in article doi:10.1101/2025.03.12.642038, “Structural, biophysical and biological analysis and characterisation of IRF4 DNA-binding domain mutations associated with multiple myeloma”.
# Changes are numbered by the printed parent chain.
# T1: IRF4 DBD T95K (Homo sapiens, UniProt Q15306 20-132, T95K)
# T1 sequence: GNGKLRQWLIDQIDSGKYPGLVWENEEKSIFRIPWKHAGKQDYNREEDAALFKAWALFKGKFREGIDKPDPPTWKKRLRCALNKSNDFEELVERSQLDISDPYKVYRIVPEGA
# T2: IRF4 DBD C99S (Homo sapiens, UniProt Q15306 20-132, C99S)
# T2 sequence: T1 sequence with K76T, C80S
# T3: IRF4 DBD D117A (Homo sapiens, UniProt Q15306 20-132, D117A)
# T3 sequence: T1 sequence with K76T, D98A
# T4: IRF4 DBD C99A (Homo sapiens, UniProt Q15306 20-132, C99A)
# T4 sequence: T1 sequence with K76T, C80A
# Experiments:
# Assay in all cases: SPR two-state kinetic; FP: PBS + 0.05% Tween20, 5 nM DNA, 1 h, room temperature; SPR: Biacore S200, SA chip, protein 0.1-4500 nM, running buffer not given in material; errors are SD
# IRF4 DBD T95K = molecular target: T1, IRF4 DBD T95K; conditions: protein: recombinant; tags: N-terminal His8-linker-His8-TEV, cleaved; label: 3' biotin; hairpin, TTTT loop
# IRF4 DBD C99S = molecular target: T2, IRF4 DBD C99S; conditions: protein: recombinant; label: 3' biotin; hairpin, TTTT loop
# IRF4 DBD D117A = molecular target: T3, IRF4 DBD D117A; conditions: protein: recombinant; tags: N-terminal His8-linker-His8-TEV, cleaved; label: 3' biotin; hairpin, TTTT loop
# IRF4 DBD C99A = molecular target: T4, IRF4 DBD C99A; conditions: protein: recombinant; tags: N-terminal His8-linker-His8-TEV, cleaved; label: 3' biotin; hairpin, TTTT loop
binder,measurement,setting,value
CTTGGTTTCACTTCCTGCGTTTTCGCAGGAAGTGAAACCAAG (structured_DNA) [IRE hairpin (biotin)],Kd,IRF4 DBD T95K,913 ± 147 nM
same,Kd,IRF4 DBD C99S,139 ± 43 nM
same,Kd,IRF4 DBD D117A,293 ± 213 nM
same,Kd,IRF4 DBD C99A,61 ± 29 nM
